{"source": "paper PMC10663459", "key": {"[1]": {"biological_target": "VRC34.01_combo1 Fab", "assay": "BLI", "conditions": "n = 3 independent experiments; parent: est. 1.0; read off a plot"}, "[2]": {"biological_target": "BG505 SOSIP trimer with FP Thai (AVGIGAMI)", "assay": "yeast display FACS sort with NGS", "conditions": "Round 3 high-affinity sort, read off a plot"}, "[3]": {"biological_target": "BG505 SOSIP trimer with FP v3 (AIGLGAMF)", "assay": "yeast display FACS sort with NGS", "conditions": "Round 3 high-affinity sort, read off a plot"}, "[4]": {"biological_target": "fusion peptide V1 (ITC peptide) (HIV-1)", "assay": "ITC"}, "[5]": {"biological_target": "fusion peptide FP_v1 (V1: […]) (HIV-1)", "assay": "ITC"}, "[6]": {"biological_target": "fusion peptide V1 (ITC peptide)", "assay": "ITC", "conditions": "parent: est. 33; read off a plot"}, "[7]": {"biological_target": "BG505 SOSIP trimer with FP v1 ([…])", "assay": "yeast display FACS sort with NGS", "conditions": "Round 3 high-affinity sort, VH-SSM library; parent: est. 1.8; read off a plot"}, "[8]": {"conditions": "VL-SSM library, parent: est. 0.4"}, "[9]": {"conditions": "VH-SSM library, parent: est. 1.4"}}}
{"substance": "His-tagged fusion peptide (residue 512-521), wild type (BLI peptide) I515A", "values": [{"measurement": "ratio to parent", "setting": "[1]", "value": 0.12}]}
{"substance": "His-tagged fusion peptide (residue 512-521), wild type (BLI peptide) G514A", "values": [{"measurement": "ratio to parent", "setting": "[1]", "value": 0.97}]}
{"substance": "His-tagged fusion peptide (residue 512-521), wild type (BLI peptide) G516A", "values": [{"measurement": "ratio to parent", "setting": "[1]", "value": 0.14}]}
{"substance": "His-tagged fusion peptide (residue 512-521), wild type (BLI peptide) V513G", "values": [{"measurement": "ratio to parent", "setting": "[1]", "value": 0.01}]}
{"substance": "VRC34.01 Fab L:S92T", "values": [{"measurement": "enrichment", "setting": "[2]; [8]", "value": 440}, {"measurement": "enrichment", "setting": "[3]; VL-SSM library, parent: est. 1.7", "value": 110}]}
{"substance": "VRC34.01_combo1 (VH_E2K_T59F), IgG (antibody)", "values": [{"measurement": "fold better binding than VRC34.01", "setting": "[4]", "value": 6, "unit": "fold"}]}
{"substance": "VRC34.01-HC-T59F (antibody)", "values": [{"measurement": "Kd", "setting": "[5]", "value": 7.7, "unit": "nM"}, {"measurement": "stoichiometry N", "setting": "[5]", "value": 0.8}]}
{"substance": "His-tagged fusion peptide (residue 512-521), wild type (BLI peptide) V513A", "values": [{"measurement": "ratio to parent", "setting": "[1]", "value": 0.47}]}
{"substance": "VRC34.01 Fab L:D1Y", "values": [{"measurement": "enrichment", "setting": "[2]; [8]", "value": 580}]}
{"substance": "VRC34.01 (template antibody), IgG H:E2K; H:A33P; H:T59F", "values": [{"measurement": "Kd", "setting": "[6]", "value": 2.2, "unit": "nM"}]}
{"substance": "VRC34.01 (template antibody), IgG", "values": [{"measurement": "Kd", "setting": "[4]", "value": 33, "unit": "nM"}]}
{"substance": "VRC34.01 (template antibody), IgG H:T59F", "values": [{"measurement": "Kd", "setting": "[6]", "value": 7.5, "unit": "nM"}]}
{"substance": "His-tagged fusion peptide (residue 512-521), wild type (BLI peptide) V518A", "values": [{"measurement": "ratio to parent", "setting": "[1]", "value": 0.97}]}
{"substance": "VRC34.01 (template antibody), IgG H:E2K", "values": [{"measurement": "Kd", "setting": "[6]", "value": 27, "unit": "nM"}]}
{"substance": "His-tagged fusion peptide (residue 512-521), wild type (BLI peptide) V518G", "values": [{"measurement": "ratio to parent", "setting": "[1]", "value": 0.83}]}
{"substance": "VRC34.01 Fab H:T59Y", "values": [{"measurement": "enrichment", "setting": "[3]; [9]", "value": 2500}]}
{"substance": "VRC34.01 Fab H:T58Q", "values": [{"measurement": "enrichment", "setting": "[7]", "value": 400}]}
{"substance": "VRC34.01-HC-E2K (antibody)", "values": [{"measurement": "Kd", "setting": "[5]", "value": 28, "unit": "nM"}]}
{"substance": "His-tagged fusion peptide (residue 512-521), wild type (BLI peptide) F519G", "values": [{"measurement": "ratio to parent", "setting": "[1]", "value": 0.82}]}
{"substance": "VRC34.01 Fab H:K12A", "values": [{"measurement": "enrichment", "setting": "[2]; VH-SSM library, parent: est. 0.7", "value": 450}]}
{"substance": "VRC34.01 VH_T59F, IgG (antibody)", "values": [{"measurement": "fold higher affinity than VRC34.01", "setting": "[4]", "value": 4, "unit": "fold"}]}
{"substance": "VRC34.01 Fab H:T59F", "values": [{"measurement": "enrichment", "setting": "[3]; [9]", "value": 480}]}
{"substance": "His-tagged fusion peptide (residue 512-521), wild type (BLI peptide) A512G", "values": [{"measurement": "ratio to parent", "setting": "[1]", "value": 0.88}]}
{"substance": "His-tagged fusion peptide (residue 512-521), wild type (BLI peptide) A517G", "values": [{"measurement": "ratio to parent", "setting": "[1]", "value": 0.97}]}
{"substance": "His-tagged fusion peptide (residue 512-521), wild type (BLI peptide) I515G", "values": [{"measurement": "ratio to parent", "setting": "[1]", "value": 0.01}]}
{"substance": "VRC34.01 Fab H:A33P", "values": [{"measurement": "enrichment", "setting": "[3]; [9]", "value": 55}]}
